This is an account of results in paper PMC314469, “Protein Interaction Networks by Proteome Peptide Scanning” (PLoS Biology, 2004).

The labels stand for the following.
T1: amphyphisin SH3 (AMPH_HUMAN), P49418
T1 chain: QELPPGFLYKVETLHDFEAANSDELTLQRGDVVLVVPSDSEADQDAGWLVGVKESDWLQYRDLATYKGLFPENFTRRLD

For one assay, the target named is T1, amphyphisin SH3 (AMPH_HUMAN), P49418. The experiment in a line: SPOT array.
In turn, RQIPPYRPPQQGPP [Q15532 247-261] returned a normalised SPOT signal, Boehringer light units (BLU); mean over the file's lines of this peptide of 170.

RQGPPQKPPGPAGP [P17600 586-600] came in with a normalised SPOT signal, Boehringer light units (BLU); mean over the file's lines of this peptide of 46.6.

RPVLPQRPPEERPP [Q9BXX0 822-836] yielded a normalised SPOT signal, Boehringer light units (BLU); mean over the file's lines of this peptide of 252.

RPPPPRRPQGPPPP [Q04118 259-272] returned a normalised SPOT signal, Boehringer light units (BLU); mean over the file's lines of this peptide of 35.7.

RQSQLQRPLRGFTW [Q9HCU0 92-105] had a normalised SPOT signal, Boehringer light units (BLU); mean over the file's lines of this peptide of 1210.

RPPFLSRPARGLYS [Q16512 357-370] came in with a normalised SPOT signal, Boehringer light units (BLU); mean over the file's lines of this peptide of 774.

In turn, RPSFLRRPVNQVVL [Q96MS0 257-270] showed a normalised SPOT signal, Boehringer light units (BLU); mean over the file's lines of this peptide of 43.9.

On to RPALPGRPPRWLNR [Q8TDZ8 103-117], for which the normalised SPOT signal, Boehringer light units (BLU); mean over the file's lines of this peptide turned out to be 16100.

RPPVPPRPPRPPET [P52849 66-80] had a normalised SPOT signal, Boehringer light units (BLU); mean over the file's lines of this peptide of 5400.

For the molecule AVKVFHRPWRRGWH [O60449 754-767], the normalised SPOT signal, Boehringer light units (BLU); mean over the file's lines of this peptide came out at 787.

RPPRPSRPPPPTPR [O43584 87-101] returned a normalised SPOT signal, Boehringer light units (BLU); mean over the file's lines of this peptide of 7260.

RPVAPRRPRDAVGQ [O43541 61-74] showed a normalised SPOT signal, Boehringer light units (BLU); mean over the file's lines of this peptide of 3660.

RPHAPGRPARGKVQ [Q16439 323-336] gave a normalised SPOT signal, Boehringer light units (BLU); mean over the file's lines of this peptide of 3930.

For RPTFLRRPINQVVL [Q9HCK4 226-239], the normalised SPOT signal, Boehringer light units (BLU); mean over the file's lines of this peptide stood at 169.

Take AVGPPKRPQPAALE [Q9ULK5 32-45]: the normalised SPOT signal, Boehringer light units (BLU); mean over the file's lines of this peptide stood at 31.9.

Take RPSTLRRPAYRDNQ [Q9Y520 1361-1374]: the normalised SPOT signal, Boehringer light units (BLU); mean over the file's lines of this peptide turned out to be 44.5.

Consider RPRRPRRPGPSDPA [Q96QG0 344-357], for which the normalised SPOT signal, Boehringer light units (BLU); mean over the file's lines of this peptide worked out at 594.

In turn, RPAPPQRPPPPSGA [O43426 1118-1132] displayed a normalised SPOT signal, Boehringer light units (BLU); mean over the file's lines of this peptide of 1990.

Turning to RPAVLPRPEKPQLP [P78314 398-411], the normalised SPOT signal, Boehringer light units (BLU); mean over the file's lines of this peptide was 197.

Take RPPGPRRPERGPRG [P08913 304-317]: the normalised SPOT signal, Boehringer light units (BLU); mean over the file's lines of this peptide worked out at 13300.

In turn, RQLRLRRPDDGSRE [Q9NR61 553-566] came in with a normalised SPOT signal, Boehringer light units (BLU); mean over the file's lines of this peptide of 39.7.

As for RQHLPERPRRSPLS [Q9H6G5 120-133], the normalised SPOT signal, Boehringer light units (BLU); mean over the file's lines of this peptide is 5990.

Molecule AVKSLKRPLEATFD [Q9NR56 273-286] returned a normalised SPOT signal, Boehringer light units (BLU); mean over the file's lines of this peptide of 23.6.

RPNPLRRPLNRKRA [Q96CZ1 23-36] registered a normalised SPOT signal, Boehringer light units (BLU); mean over the file's lines of this peptide of 156.

Molecule RPTVPARPPATHPR [Q8TDP0 171-185] had a normalised SPOT signal, Boehringer light units (BLU); mean over the file's lines of this peptide of 8140.

With RPEDPTRPSRFQQQ [O15067 285-298], the normalised SPOT signal, Boehringer light units (BLU); mean over the file's lines of this peptide was determined as 1830.

Take RPPPPAKPPPDEEE [Q92625 451-465]: the normalised SPOT signal, Boehringer light units (BLU); mean over the file's lines of this peptide stood at 32.4.

For the molecule RPPNLKRPEDYEAV [O75992 403-416], the normalised SPOT signal, Boehringer light units (BLU); mean over the file's lines of this peptide was determined as 12.

For a further assay, the target named is endophilin SH3 (SH3G2_HUMAN), Q99962. The experiment in a line: SPOT array.
For RQIPPYRPPQQGPP [Q15532 247-261], the normalised SPOT signal, Boehringer light units (BLU); mean over the file's lines of this peptide is 68.

Molecule RQGPPQKPPGPAGP [P17600 586-600] yielded a normalised SPOT signal, Boehringer light units (BLU); mean over the file's lines of this peptide of 325.

Turning to RPVLPQRPPEERPP [Q9BXX0 822-836], the normalised SPOT signal, Boehringer light units (BLU); mean over the file's lines of this peptide was found to be 420.

For RPPPPRRPQGPPPP [Q04118 259-272], the normalised SPOT signal, Boehringer light units (BLU); mean over the file's lines of this peptide was determined as 3820.

Take RQSQLQRPLRGFTW [Q9HCU0 92-105]: the normalised SPOT signal, Boehringer light units (BLU); mean over the file's lines of this peptide was 235.

The molecule RPPFLSRPARGLYS [Q16512 357-370] gave a normalised SPOT signal, Boehringer light units (BLU); mean over the file's lines of this peptide of 1450.

The molecule RPSFLRRPVNQVVL [Q96MS0 257-270] had a normalised SPOT signal, Boehringer light units (BLU); mean over the file's lines of this peptide of 171.

On to RPALPGRPPRWLNR [Q8TDZ8 103-117], for which the normalised SPOT signal, Boehringer light units (BLU); mean over the file's lines of this peptide is 13400.

Consider RPPVPPRPPRPPET [P52849 66-80], for which the normalised SPOT signal, Boehringer light units (BLU); mean over the file's lines of this peptide was 8560.

As to AVKVFHRPWRRGWH [O60449 754-767], the normalised SPOT signal, Boehringer light units (BLU); mean over the file's lines of this peptide was 38.8.

As for RPPRPSRPPPPTPR [O43584 87-101], the normalised SPOT signal, Boehringer light units (BLU); mean over the file's lines of this peptide was 13600.

In turn, RPVAPRRPRDAVGQ [O43541 61-74] came in with a normalised SPOT signal, Boehringer light units (BLU); mean over the file's lines of this peptide of 1530.

The molecule RPHAPGRPARGKVQ [Q16439 323-336] showed a normalised SPOT signal, Boehringer light units (BLU); mean over the file's lines of this peptide of 1270.

With RPTFLRRPINQVVL [Q9HCK4 226-239], the normalised SPOT signal, Boehringer light units (BLU); mean over the file's lines of this peptide is 575.

Molecule AVGPPKRPQPAALE [Q9ULK5 32-45] gave a normalised SPOT signal, Boehringer light units (BLU); mean over the file's lines of this peptide of 393.

Molecule RPSTLRRPAYRDNQ [Q9Y520 1361-1374] showed a normalised SPOT signal, Boehringer light units (BLU); mean over the file's lines of this peptide of 112.

For RPRRPRRPGPSDPA [Q96QG0 344-357], the normalised SPOT signal, Boehringer light units (BLU); mean over the file's lines of this peptide was found to be 1340.

In the case of RPAPPQRPPPPSGA [O43426 1118-1132], the normalised SPOT signal, Boehringer light units (BLU); mean over the file's lines of this peptide is 12200.

The molecule RPAVLPRPEKPQLP [P78314 398-411] displayed a normalised SPOT signal, Boehringer light units (BLU); mean over the file's lines of this peptide of 213.

With RPPGPRRPERGPRG [P08913 304-317], the normalised SPOT signal, Boehringer light units (BLU); mean over the file's lines of this peptide came out at 4970.

For the molecule RQLRLRRPDDGSRE [Q9NR61 553-566], the normalised SPOT signal, Boehringer light units (BLU); mean over the file's lines of this peptide was found to be 61.3.

On to RQHLPERPRRSPLS [Q9H6G5 120-133], for which the normalised SPOT signal, Boehringer light units (BLU); mean over the file's lines of this peptide was 11100.

Molecule AVKSLKRPLEATFD [Q9NR56 273-286] displayed a normalised SPOT signal, Boehringer light units (BLU); mean over the file's lines of this peptide of 20.3.

The molecule RPNPLRRPLNRKRA [Q96CZ1 23-36] yielded a normalised SPOT signal, Boehringer light units (BLU); mean over the file's lines of this peptide of 200.

Molecule RPTVPARPPATHPR [Q8TDP0 171-185] displayed a normalised SPOT signal, Boehringer light units (BLU); mean over the file's lines of this peptide of 14800.

For RPEDPTRPSRFQQQ [O15067 285-298], the normalised SPOT signal, Boehringer light units (BLU); mean over the file's lines of this peptide is 149.

Take RPPPPAKPPPDEEE [Q92625 451-465]: the normalised SPOT signal, Boehringer light units (BLU); mean over the file's lines of this peptide turned out to be 89.

In turn, RPPNLKRPEDYEAV [O75992 403-416] gave a normalised SPOT signal, Boehringer light units (BLU); mean over the file's lines of this peptide of 67.7.
